Paper PMC12416549 (2024)

T1: TNFR1 (Homo sapiens, UniProt P19438)
T1 chain: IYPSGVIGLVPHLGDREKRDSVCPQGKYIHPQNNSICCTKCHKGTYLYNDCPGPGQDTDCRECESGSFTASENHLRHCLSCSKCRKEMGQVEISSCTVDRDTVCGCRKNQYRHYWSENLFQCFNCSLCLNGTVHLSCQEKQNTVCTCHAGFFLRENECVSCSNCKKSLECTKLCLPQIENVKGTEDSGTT


Target: T1, TNFR1
Assay: yeast display SC50

Row | Binder | apparent Kd (screen) [nM]
1 | E82L (designed binder) SMEEEVEKAAKEYEKKKKEAIEKHLEKLKAKDKEAAERFLKELEEAAKEYAKDEAKTMSEEEAKRRAKKYKEKVLLSELSELEQKEIKEAEEKLVRTILKYVEEAAK | 0.718
2 | E12Y (designed binder) SMEEEVEKAAKYYEKKKKEAIEKHLEKLKAKDKEAAERFLKELEEAAKEYAKDEAKTMSEEEAKRRAKKYKEKVLLSELSEEEQKEIKEAEEKLVRTILKYVEEAAK | 0.593
3 | K68E (designed binder) SMEEEVEKAAKEYEKKKKEAIEKHLEKLKAKDKEAAERFLKELEEAAKEYAKDEAKTMSEEEAKRRAEKYKEKVLLSELSEEEQKEIKEAEEKLVRTILKYVEEAAK | 1.4
4 | E4P (designed binder) SMEPEVEKAAKEYEKKKKEAIEKHLEKLKAKDKEAAERFLKELEEAAKEYAKDEAKTMSEEEAKRRAKKYKEKVLLSELSEEEQKEIKEAEEKLVRTILKYVEEAAK | 3.3
5 | E37R (designed binder) SMEEEVEKAAKEYEKKKKEAIEKHLEKLKAKDKEAARRFLKELEEAAKEYAKDEAKTMSEEEAKRRAKKYKEKVLLSELSEEEQKEIKEAEEKLVRTILKYVEEAAK | 0.446
6 | L43S (designed binder) SMEEEVEKAAKEYEKKKKEAIEKHLEKLKAKDKEAAERFLKESEEAAKEYAKDEAKTMSEEEAKRRAKKYKEKVLLSELSEEEQKEIKEAEEKLVRTILKYVEEAAK | 0.49
7 | V95T (designed binder) SMEEEVEKAAKEYEKKKKEAIEKHLEKLKAKDKEAAERFLKELEEAAKEYAKDEAKTMSEEEAKRRAKKYKEKVLLSELSEEEQKEIKEAEEKLTRTILKYVEEAAK | 13.8
8 | K85H (designed binder) SMEEEVEKAAKEYEKKKKEAIEKHLEKLKAKDKEAAERFLKELEEAAKEYAKDEAKTMSEEEAKRRAKKYKEKVLLSELSEEEQHEIKEAEEKLVRTILKYVEEAAK | 0.869
9 | K17S (designed binder) SMEEEVEKAAKEYEKKSKEAIEKHLEKLKAKDKEAAERFLKELEEAAKEYAKDEAKTMSEEEAKRRAKKYKEKVLLSELSEEEQKEIKEAEEKLVRTILKYVEEAAK | 1.27
10 | E45H (designed binder) SMEEEVEKAAKEYEKKKKEAIEKHLEKLKAKDKEAAERFLKELEHAAKEYAKDEAKTMSEEEAKRRAKKYKEKVLLSELSEEEQKEIKEAEEKLVRTILKYVEEAAK | 3.3
11 | E26P (designed binder) SMEEEVEKAAKEYEKKKKEAIEKHLPKLKAKDKEAAERFLKELEEAAKEYAKDEAKTMSEEEAKRRAKKYKEKVLLSELSEEEQKEIKEAEEKLVRTILKYVEEAAK | 22.2
12 | E14M (designed binder) SMEEEVEKAAKEYMKKKKEAIEKHLEKLKAKDKEAAERFLKELEEAAKEYAKDEAKTMSEEEAKRRAKKYKEKVLLSELSEEEQKEIKEAEEKLVRTILKYVEEAAK | 12.5
13 | A47K (designed binder) SMEEEVEKAAKEYEKKKKEAIEKHLEKLKAKDKEAAERFLKELEEAKKEYAKDEAKTMSEEEAKRRAKKYKEKVLLSELSEEEQKEIKEAEEKLVRTILKYVEEAAK | 0.49
14 | A55E (designed binder) SMEEEVEKAAKEYEKKKKEAIEKHLEKLKAKDKEAAERFLKELEEAAKEYAKDEEKTMSEEEAKRRAKKYKEKVLLSELSEEEQKEIKEAEEKLVRTILKYVEEAAK | 1.27
15 | E54W (designed binder) SMEEEVEKAAKEYEKKKKEAIEKHLEKLKAKDKEAAERFLKELEEAAKEYAKDWAKTMSEEEAKRRAKKYKEKVLLSELSEEEQKEIKEAEEKLVRTILKYVEEAAK | 0.869
16 | A105K (designed binder) SMEEEVEKAAKEYEKKKKEAIEKHLEKLKAKDKEAAERFLKELEEAAKEYAKDEAKTMSEEEAKRRAKKYKEKVLLSELSEEEQKEIKEAEEKLVRTILKYVEEKAK | 1.86
17 | E89L (designed binder) SMEEEVEKAAKEYEKKKKEAIEKHLEKLKAKDKEAAERFLKELEEAAKEYAKDEAKTMSEEEAKRRAKKYKEKVLLSELSEEEQKEIKLAEEKLVRTILKYVEEAAK | 1.86
18 | E4R (designed binder) SMEREVEKAAKEYEKKKKEAIEKHLEKLKAKDKEAAERFLKELEEAAKEYAKDEAKTMSEEEAKRRAKKYKEKVLLSELSEEEQKEIKEAEEKLVRTILKYVEEAAK | 1.69

Row | Binder | apparent Kd (screen) [nM]
19 | K93C (designed binder) SMEEEVEKAAKEYEKKKKEAIEKHLEKLKAKDKEAAERFLKELEEAAKEYAKDEAKTMSEEEAKRRAKKYKEKVLLSELSEEEQKEIKEAEECLVRTILKYVEEAAK | 1.54
20 | A63T (designed binder) SMEEEVEKAAKEYEKKKKEAIEKHLEKLKAKDKEAAERFLKELEEAAKEYAKDEAKTMSEEETKRRAKKYKEKVLLSELSEEEQKEIKEAEEKLVRTILKYVEEAAK | 16.7
21 | A20H (designed binder) SMEEEVEKAAKEYEKKKKEHIEKHLEKLKAKDKEAAERFLKELEEAAKEYAKDEAKTMSEEEAKRRAKKYKEKVLLSELSEEEQKEIKEAEEKLVRTILKYVEEAAK | 0.446
22 | I98H (designed binder) SMEEEVEKAAKEYEKKKKEAIEKHLEKLKAKDKEAAERFLKELEEAAKEYAKDEAKTMSEEEAKRRAKKYKEKVLLSELSEEEQKEIKEAEEKLVRTHLKYVEEAAK | 5.84
23 | I87R (designed binder) SMEEEVEKAAKEYEKKKKEAIEKHLEKLKAKDKEAAERFLKELEEAAKEYAKDEAKTMSEEEAKRRAKKYKEKVLLSELSEEEQKERKEAEEKLVRTILKYVEEAAK | 16.7
24 | K33V (designed binder) SMEEEVEKAAKEYEKKKKEAIEKHLEKLKAKDVEAAERFLKELEEAAKEYAKDEAKTMSEEEAKRRAKKYKEKVLLSELSEEEQKEIKEAEEKLVRTILKYVEEAAK | 0.446
25 | E92Y (designed binder) SMEEEVEKAAKEYEKKKKEAIEKHLEKLKAKDKEAAERFLKELEEAAKEYAKDEAKTMSEEEAKRRAKKYKEKVLLSELSEEEQKEIKEAEYKLVRTILKYVEEAAK | 13.8
26 | K71T (designed binder) SMEEEVEKAAKEYEKKKKEAIEKHLEKLKAKDKEAAERFLKELEEAAKEYAKDEAKTMSEEEAKRRAKKYTEKVLLSELSEEEQKEIKEAEEKLVRTILKYVEEAAK | 0.49
27 | K73C (designed binder) SMEEEVEKAAKEYEKKKKEAIEKHLEKLKAKDKEAAERFLKELEEAAKEYAKDEAKTMSEEEAKRRAKKYKECVLLSELSEEEQKEIKEAEEKLVRTILKYVEEAAK | 24.4
28 | E4I (designed binder) SMEIEVEKAAKEYEKKKKEAIEKHLEKLKAKDKEAAERFLKELEEAAKEYAKDEAKTMSEEEAKRRAKKYKEKVLLSELSEEEQKEIKEAEEKLVRTILKYVEEAAK | 1.86
29 | K18C (designed binder) SMEEEVEKAAKEYEKKKCEAIEKHLEKLKAKDKEAAERFLKELEEAAKEYAKDEAKTMSEEEAKRRAKKYKEKVLLSELSEEEQKEIKEAEEKLVRTILKYVEEAAK | 0.869
30 | A105H (designed binder) SMEEEVEKAAKEYEKKKKEAIEKHLEKLKAKDKEAAERFLKELEEAAKEYAKDEAKTMSEEEAKRRAKKYKEKVLLSELSEEEQKEIKEAEEKLVRTILKYVEEHAK | 2.05
31 | S1H (designed binder) HMEEEVEKAAKEYEKKKKEAIEKHLEKLKAKDKEAAERFLKELEEAAKEYAKDEAKTMSEEEAKRRAKKYKEKVLLSELSEEEQKEIKEAEEKLVRTILKYVEEAAK | 1.4
32 | R66P (designed binder) SMEEEVEKAAKEYEKKKKEAIEKHLEKLKAKDKEAAERFLKELEEAAKEYAKDEAKTMSEEEAKRPAKKYKEKVLLSELSEEEQKEIKEAEEKLVRTILKYVEEAAK | 0.593
33 | V95S (designed binder) SMEEEVEKAAKEYEKKKKEAIEKHLEKLKAKDKEAAERFLKELEEAAKEYAKDEAKTMSEEEAKRRAKKYKEKVLLSELSEEEQKEIKEAEEKLSRTILKYVEEAAK | 13.8
34 | F39A (designed binder) SMEEEVEKAAKEYEKKKKEAIEKHLEKLKAKDKEAAERALKELEEAAKEYAKDEAKTMSEEEAKRRAKKYKEKVLLSELSEEEQKEIKEAEEKLVRTILKYVEEAAK | 3
35 | E82H (designed binder) SMEEEVEKAAKEYEKKKKEAIEKHLEKLKAKDKEAAERFLKELEEAAKEYAKDEAKTMSEEEAKRRAKKYKEKVLLSELSEHEQKEIKEAEEKLVRTILKYVEEAAK | 0.446
